Test results: patent publication US20250340595A1 (published 2025)
Where “and” joins values, the source holds several entries; their conditions need not be identical. Identical values can stand only once. Like-named read-outs stand apart in the source and are kept apart here. Starred links: 1 amine or outer side, 2 acyl side, 3 side chain; linkers in the order of their positions; H or OH if unused. Positions of bridges follow the written chain, without caps; N, C: chain ends. Non-standard residues stand in square brackets, D forms with d. No end group written: not given here. *: point of attachment. TATB = O=C(C[*:1])N1CN(C(=O)C[*:2])CN(C(=O)C[*:3])C1; 1Nal = N[C@@H](Cc1cccc2ccccc12)C(=O)O; 2Nal = N[C@@H](Cc1ccc2ccccc2c1)C(=O)O; AzPro = azidopropyl, [N-]=[N+]=NCCC*; Hyp = O=C(O)[C@@H]1C[C@@H](O)CN1; tBuAla = CC(C)(C)C[C@H](N)C(=O)O; 4Pal = N[C@@H](Cc1ccncc1)C(=O)O; Tle = CC(C)(C)[C@H](N)C(=O)O; Aib = CC(C)(N)C(=O)O

Experiments:
[1] = target: T1, Human TfR1 protein (R&D Systems, 2474-TR or Acro Biosystems, CD1-H5243) (human, UniProt P02786 89-760); assay: FP competition, competitor BCY15768
T1 sequence (P02786 89-760 limits assumed): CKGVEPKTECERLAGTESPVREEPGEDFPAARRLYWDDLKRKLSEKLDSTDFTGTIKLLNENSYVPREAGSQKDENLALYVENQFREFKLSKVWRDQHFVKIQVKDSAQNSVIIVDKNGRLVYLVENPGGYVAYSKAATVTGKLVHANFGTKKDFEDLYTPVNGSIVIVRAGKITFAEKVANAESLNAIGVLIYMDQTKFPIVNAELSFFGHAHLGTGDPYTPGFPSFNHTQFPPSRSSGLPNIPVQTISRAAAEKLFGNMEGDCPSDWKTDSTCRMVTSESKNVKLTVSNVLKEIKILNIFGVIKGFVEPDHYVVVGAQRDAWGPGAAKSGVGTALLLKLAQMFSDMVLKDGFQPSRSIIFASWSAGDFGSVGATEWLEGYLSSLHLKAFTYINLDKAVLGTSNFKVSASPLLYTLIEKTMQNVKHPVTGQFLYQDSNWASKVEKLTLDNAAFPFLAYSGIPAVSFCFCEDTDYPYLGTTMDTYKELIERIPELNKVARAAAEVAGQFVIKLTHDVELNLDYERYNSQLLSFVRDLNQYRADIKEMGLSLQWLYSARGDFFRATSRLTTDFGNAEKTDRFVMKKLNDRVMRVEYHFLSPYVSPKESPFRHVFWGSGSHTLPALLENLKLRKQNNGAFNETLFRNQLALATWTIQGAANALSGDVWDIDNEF

[2] = target: T1, Human TfR1 protein (R&D Systems, …); assay: FP competition, competitor BCY15768; remark: listed apart in the source
[3] = target: T2, Recombinant cynomolgus TfR1, His6-tagged (a.a. 89-760) (cynomolgus, UniProt H9EXL1 89-760 (rhesus entry)); assay: SPR, TfR1 on chip
T2 construct: range 89-760; same product number named for FP and SPR; also called Cyno TfR1; Acro Biosystems TFR-C524a
T2 sequence (chain, as listed by the source): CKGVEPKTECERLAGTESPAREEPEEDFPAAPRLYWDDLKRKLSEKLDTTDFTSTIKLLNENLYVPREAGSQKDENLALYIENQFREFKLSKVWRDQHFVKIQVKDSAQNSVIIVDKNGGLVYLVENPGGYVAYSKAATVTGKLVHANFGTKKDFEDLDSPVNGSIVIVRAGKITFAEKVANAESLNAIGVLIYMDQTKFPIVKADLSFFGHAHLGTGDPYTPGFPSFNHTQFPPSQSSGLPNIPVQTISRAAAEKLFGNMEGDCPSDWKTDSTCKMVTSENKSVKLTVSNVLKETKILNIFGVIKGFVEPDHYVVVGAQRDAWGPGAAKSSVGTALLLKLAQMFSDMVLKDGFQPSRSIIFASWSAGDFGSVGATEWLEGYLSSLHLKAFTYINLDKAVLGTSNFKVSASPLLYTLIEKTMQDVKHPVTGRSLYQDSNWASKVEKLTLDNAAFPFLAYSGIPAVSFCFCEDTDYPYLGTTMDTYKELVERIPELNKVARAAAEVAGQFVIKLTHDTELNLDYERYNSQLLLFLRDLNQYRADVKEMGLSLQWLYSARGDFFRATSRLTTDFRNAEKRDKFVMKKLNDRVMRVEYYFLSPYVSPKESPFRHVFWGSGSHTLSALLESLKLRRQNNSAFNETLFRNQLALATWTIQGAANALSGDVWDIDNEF

[4] = target: T3, Recombinant human TfR1, His6-tagged (a.a. 89-760) (human, UniProt P02786 89-760); assay: SPR, TfR1 on chip
T3 construct: range 89-760; captured and coupled on an NTA chip for SPR; also called transferrin receptor 1; CD71
T3 sequence (P02786 89-760 limits assumed): as the sequence (P02786 89-760 limits assumed) above

Ki [1] [nM] | Ki [2] [nM] | Kd [3] | Kd [4] [nM] | Binder
30 | – | – | – | Ac-CS[Hyp]DAHLGCISYC (linker 1-9-13 via TATB) [BCY17989]
– | 9 | – | – | NWNCSPDAHLGCISYCK (3 Cys on TATB; N-terminal acetyl (Ac); C-terminal [K(N3)] 6-azido lysine) [BCY17871]
90 | – | 7310 nM | 422 | NWNCSPDAHLGCISYC (3 Cys on TATB; N-terminal acetyl (Ac); [NMeTrp] in N-terminal extension) [BCY18036]
– | 30 | – | – | AzPro-CSPDAHLGCISYC (linker 1-9-13 via TATB (inferred)) [BCY17869]
– | – | – | 1660 | CPXDAYLGCXSYC (3 Cys on TATA; N-terminal acetyl (Ac); core as printed CP[HyP]DAYLGC[tBuGly]SYC, Same peptide as BCY17991 but cyclised on TATA) [BCY20546]
– | – | 4660 nM | – | Ac-CAPDAHLGCISYC (linker 1-9-13 via TATB (inferred)) [BCY17986]
42 | 383 | 5140 nM | 50 | Ac-CSADAHLGCISYC (linker 1-9-13 via TATB (inferred)) [BCY17987]
– | – | 10300 nM | – | Ac-N[dW]NCSPDAHLGCISYC (linker 4-12-16 via TATB (inferred)) [BCY18035]
– | – | 535 nM | – | Ac-NWNCSPDAHLGCISYC (linker 4-12-16 via TATB (inferred)) [BCY17992]
4 | 6 | 589 nM | – | NWNCPXDAYLGCXSYC (3 Cys on TATB; core as printed CP[HyP]DAYLGC[tBuGly]SYC) [BCY18033]
– | 8 | – | – | Ac-CP[Hyp]DAYLGCISYC (linker 1-9-13 via TATB) [BCY17990]
– | – | 1650 nM | – | Ac-CSPDAHLGCISYCE[dP]W (linker 1-9-13 via TATB (inferred)) [BCY18038]
2 | 5 | – | 3.4 | CPXDAYLGCXSYCEPW (3 Cys on TATB; N-terminal acetyl (Ac); core as printed CP[HyP]DAYLGC[tBuGly]SYC) [BCY17995]
8 | 8 | 688 nM | – | Ac-CSPDAHLGCISYCEPW-NH2 (linker 1-9-13 via TATB (inferred)) [BCY17994]
– | – | 2080 nM | – | Ac-N[1Nal]NCSPDAHLGCISYC (linker 4-12-16 via TATB) [BCY18034]

Continued, binder first:

Binder | Ki [1] [nM] | Ki [2] [nM] | Kd [3] | Kd [4] [nM]
ACSPDAHLGCISYCPIVH (linker 2-10-14 via TATB (inferred)) [BCY17120] | – | – | 1260 nM | –
ACSPDAHLGCXSYCA (3 Cys on TATB; core as printed CSPDAHLGC[B-Melle]SYC (beta-methyl isoleucine)) [BCY16040] | 20000 | – | – | –
Ac-CSPDAHLGCISYC (linker 1-9-13 via TATB) [BCY15891] | 67 | 94 | 3990 nM | 46
ACSPDAYLGC[Tle]SYCA (linker 2-10-14 via TATB) [BCY16966] | – | – | 1900 nM | –
ACPPDAYLGC[Tle]SYCA (linker 2-10-14 via TATB) [BCY16964] | – | – | 514 nM | –
ACSPDAHLGCIS[1Nal]CA (linker 2-10-14 via TATB) [BCY16029] | – | – | 5480 nM | –
ACPXDAHLGCISYCA (3 Cys on TATB; core as printed CP[Aib]DAHLGCISYC) [BCY16550] | 56 | 56 | 682 nM | 18
NWNCSPDAHLGCISYCK (3 Cys on TATB; C-terminal [K(N3)] 6-azido lysine) [BCY17870] | – | 9 | – | –
NWNCSPDAHLGCISYCA (linker 4-12-16 via TATB) [BCY17109] | – | – | 281 nM and 535 nM | –
ACP[Aib]DAYLGC[Tle]SYCA (linker 2-10-14 via TATB) [BCY16963] | – | – | 501 nM | –
ACS[Aib]DAHLGC[Tle]SYCA (linker 2-10-14 via TATB) [BCY16753] | 48 | 48 | 1700 nM | 12
ACP[Aib]DAHLGC[Tle]SYCA (linker 2-10-14 via TATB) [BCY16962] | 36 | 36 | 599 nM | 6.1
ACSPDAHLGCIS[2Nal]CA (linker 2-10-14 via TATB) [BCY16031] | 119 | 119 | 6480 nM | 68
CSPDAHLGCISYC (3 Cys on a scaffold (TATA or TATB assumed by the filing for non-inhibitory peptides; not stated for this one)) [BCY15935] | 300 | 300 | – | –
NEVCSPDAHLGCISYCA (linker 4-12-16 via TATB (inferred)) [BCY17112] | – | – | 2600 nM | –
ACSPDAHLGCIS[4Pal]CA (linker 2-10-14 via TATB) [BCY16032] | 654 | 654 | 30000 nM | 305
Ac-CPPDAHLGCISWC-NH2 (linker 1-9-13 via TATB; SMILES CC[C@H](C)[C@@H]1NC(=O)[C@@H]2CSCC(=O)N3CN(CN(C3)C(=O)CSC[C@H](NC(C)=O)C(=O)N3CCC[C@H]3C(=O)N3CCC[C@H]3C(=O)N[C@@H](CC(=O)O)C(=O)N[C@@H](C)C(=O)N[C@@H](Cc3c[nH]cn3)C(=O)N[C@@H](CC(C)C)C(=O)NCC(=O)N2)C(=O)CSC[C@@H](C(N)=O)NC(=O)[C@H](Cc2c[nH]c3ccccc23)NC(=O)[C@H](CO)NC1=O) [BCY15889] | 40 | – | – | –
ACYLPDWXCGDEYCA (not fully specified; 3 Cys on TATB; core as printed CYLPDW[tBuAla]CGDEYC) [BCY15648] | 107 | – | – | –
ACSPDAYLGC[tBuAla]SYCA (linker 2-10-14 via TATB) [BCY16558] | 1620 | 1620 | 50000 nM | 20000
ACSPDAHLGCISYCA (linker 2-10-14 via TATB) [BCY15468] | – | 103 | – | –
ACSPDAHLGCISYCEPW (linker 2-10-14 via TATB (inferred)) [BCY17114] | – | – | 845 nM | –
